Tests used:
[1] = target: GlOCPX E25C mutant (Gloeobacter kilaueensis JS1); assay: SEC
[2] = target: Gloeobacter kilaueensis JS1 Orange Carotenoid Protein clade X (GlOCPX), wild type (Gloeobacter kilaueensis JS1); assay: SEC-MALS
[3] = target: Gloeobacter kilaueensis JS1 Orange Carotenoid Protein clade X (GlOCPX), wild type (Gloeobacter kilaueensis JS1); assay: SEC

Substance | dimer/monomer ratio [1] | stoichiometry N [2] | dimer/monomer ratio [3]
GlOCPX E25C mutant (natural protein) | 25% |  | 
Gloeobacter kilaueensis JS1 Orange Carotenoid Protein clade X (GlOCPX), wild type (natural protein) |  | 2 | 5%

Reference: paper doi:10.1101/2022.06.14.496144
